Drawing on the RNAGym collection of RNA variant scans (doi:10.7554/elife.90254), this text covers self-cleavage for 167 variants.

First the molecules themselves.
B1: LINE1-mini (parent)
chain: GGCAGAGCUCAACACAGCGUGGCAAAGUGGCUGUGGCUAGACUGCC

The variants in this data set derive from B1. Briefly: self-cleavage, relative activity (ratio to wild type); higher = more cleavage; in vitro, sequencing; the parent is a self-cleaving ribozyme.
As to U20C C37U, the self-cleavage amounted to 0.06. As for U20C C37G, the figure is 0.23; as for U20C C37A, 0.04; as for G21A G40U, 0.19. Turning to G21A G40C, the self-cleavage turned out to be 0.22.

With G21A G40A, the self-cleavage turned out to be 0.29. The value for G21A C45U was 2.04; that for G21A C45A was 0.97. As for G21A C45G, the figure is 0.26.

Regarding U20G G36U, the self-cleavage came to 0.07. For U20G G36C, the self-cleavage turned out to be 0.09. As for U20G G36A, the self-cleavage worked out at 0.08.

As for U20C C42U, the self-cleavage was 0.31. Consider U20C C42A, for which the self-cleavage came out at 0.04. As for U20C C42G, the figure is 0.04. In the case of U20G U43G, the self-cleavage stood at 0.02. As for U20G U43A, the figure is 0.03.

With U20G U43C, the self-cleavage was found to be 0.04. As for G19U U32G, the self-cleavage was 0.1. As for G19U U32C, the figure is 0.4; as for G19U U32A, 0.09; as for U20C A26C, 0.36. For the variant U20C A26U, the self-cleavage was 0.68. For the variant U20C A26G, the self-cleavage is 0.36. For the variant U20G G30C, the self-cleavage was determined as 0.3.

With U20G G30A, the self-cleavage is 0.66. The value for U20G G30U was 0.47; that for U20A U43C was 0.13. Consider U20A U43A, for which the self-cleavage was determined as 0.08. For U20C U38C, the self-cleavage worked out at 0.22. As for U20C U38A, the figure is 0.19; as for U20C U38G, 0.01; as for U20C G44U, 0.14. As for U20C G44A, the figure is 0.12; as for U20C G44C, 0.09; as for G21A G36C, 0.1. As for G21A G36A, the self-cleavage is 0.3. For G21A G36U, the self-cleavage came to 0.15.

For the variant U20A G35A, the self-cleavage is 0.1. As to U20A G35C, the self-cleavage was determined as 0.05.

U20A G35U: the self-cleavage came to 0.08.

As for U20G C37U, the self-cleavage came to 0.06.

For U20G C37G, the self-cleavage is 0.07.

Take U20G C37A: the self-cleavage is 0.02.

U20C U28G: the self-cleavage was determined as 0.93. Turning to U20C U28A, the self-cleavage was 0.93. With U20C U28C, the self-cleavage amounted to 0.54. U20G A39C: the self-cleavage was 0.13.

U20G A39U: the self-cleavage came out at 0.56. As for U20G A39G, the figure is 0.07.

For U20C G33C, the self-cleavage stood at 0.07. As for U20C G33A, the figure is 0.1; as for U20C G33U, 0.14. As for U20G U32G, the figure is 0.09. The value for U20G U32C was 0.06; that for U20G U32A was 0.07. As to U20C G35C, the self-cleavage is 0.03.

As for U20C G35A, the self-cleavage was 0.1. As for U20C G35U, the figure is 0.1; as for U20A U28A, 0.55; as for U20A U28G, 0.28. U20A U28C: the self-cleavage was 0.67. Regarding U20C A39G, the self-cleavage is 0.06. Consider U20C A39C, for which the self-cleavage was 0.2. Turning to U20C A39U, the self-cleavage came to 0.37.

U20A: the self-cleavage is 0.68. As to U20C, the self-cleavage turned out to be 0.66. Consider U20G, for which the self-cleavage amounted to 0.69. The value for G21A A41G was 0.44; that for G21A A41U was 0.83.

Take G21A A41C: the self-cleavage was 0.12.

In the case of U20C G21A, the self-cleavage came out at 0.8. As to U20C G21U, the self-cleavage was 0.45. As for U20C G21C, the figure is 0.39; as for U20G G33A, 0.09. As for U20G G33U, the figure is 0.08; as for U20G G33C, 0.06; as for U20G C23A, 0.48. As to U20G C23U, the self-cleavage amounted to 0.54. As for U20G C23G, the self-cleavage stood at 0.38. As for U20C U32G, the figure is 0.04; as for U20C U32C, 0.05; as for U20C U32A, 0.05. For the variant G21C A25G, the self-cleavage was found to be 0.94. Turning to G21C A25C, the self-cleavage is 0.85.

G21C A25U: the self-cleavage was determined as 1.14. As for U20A C23A, the figure is 1.15; as for U20A C23U, 0.8. For U20A C23G, the self-cleavage came out at 0.69. Consider G21A G35A, for which the self-cleavage came to 0.15. With G21A G35C, the self-cleavage worked out at 0.19. Take G21A G35U: the self-cleavage was determined as 0.35. As for U20G U38C, the figure is 0.26. As for U20G U38G, the figure is 0.02. As for U20G U38A, the figure is 0.2; as for U20G U34G, 0.14. U20G U34A: the self-cleavage was 0.06. The value for U20G U34C was 0.39; that for G21A U38A was 0.89; that for G21A U38G was 0.03. Consider G21A U38C, for which the self-cleavage is 1.12. As for G21C, the figure is 0.72; as for G21A, 2.19; as for U20A C46A, 0.76. U20A C46G: the self-cleavage was determined as 0.79. As for U20A C46U, the figure is 0.65. Consider U20G C42U, for which the self-cleavage turned out to be 0.17. Turning to U20G C42G, the self-cleavage stood at 0.14. Turning to U20G C42A, the self-cleavage amounted to 0.1. As for U20A G21C, the figure is 0.39. As for U20A G21A, the figure is 0.76; as for U20A G21U, 0.69; as for U20C G22C, 0.19.

For U20C G22U, the self-cleavage came out at 0.4. As for U20C G22A, the figure is 0.77. With U20G A26C, the self-cleavage is 0.47. Regarding U20G A26G, the self-cleavage is 0.43. Take U20G A26U: the self-cleavage stood at 0.3.

With U20C C31U, the self-cleavage came out at 0.39. The value for U20C C31A was 0.27; that for U20C C31G was 0.07; that for U20A U38C was 0.41. The value for U20A U38G was 0.02. The value for U20A U38A was 0.43; that for G21A C46A was 1.96; that for G21A C46G was 1.5. Consider G21A C46U, for which the self-cleavage was found to be 1.39. Turning to U20C A41U, the self-cleavage came out at 0.46. As for U20C A41G, the figure is 1. On to U20C A41C, for which the self-cleavage was found to be 0.08. Take G21A A24U: the self-cleavage is 2.52. With G21A A24C, the self-cleavage is 1.61. The value for G21A A24G was 2.26; that for G21A C23A was 1.07.

As for G21A C23U, the self-cleavage amounted to 1.02. As to G21A C23G, the self-cleavage worked out at 0.78. The value for U20G G35C was 0.11; that for U20G G35U was 0.12. As for U20G G35A, the self-cleavage was found to be 0.06. With G21A U43A, the self-cleavage was determined as 0.17. As for G21A U43C, the figure is 0.18. G21A U43G: the self-cleavage is 0.14. The value for U20C G29A was 0.55; that for U20C G29U was 0.4; that for U20C G29C was 0.31.

Take U20A G30C: the self-cleavage turned out to be 0.68. The value for U20A G30A was 0.62; that for U20A G30U was 0.93. The value for U20A A25G was 0.26. Turning to U20A A25U, the self-cleavage came out at 0.77. As for U20A A25C, the figure is 0.61. The value for U20A G22C was 0.38. With U20A G22U, the self-cleavage is 0.91. Take U20A G22A: the self-cleavage is 0.55. The value for G21A G30U was 2.01; that for G21A G30A was 1.73; that for G21A G30C was 0.61. For U20G U28A, the self-cleavage amounted to 0.17. For U20G U28G, the self-cleavage came to 0.51. As for U20G U28C, the figure is 0.67; as for G21A A25U, 1.75. In the case of G21A A25G, the self-cleavage was found to be 1.4.

For the variant G21A A25C, the self-cleavage came out at 2.37. As for U20G G22A, the self-cleavage amounted to 0.55. As for U20G G22U, the figure is 0.51. Consider U20G G22C, for which the self-cleavage is 0.41.

Consider G21A G22C, for which the self-cleavage worked out at 0.38.
